# According to PMC8565331, “The RNA chaperone StpA enables fast RNA refolding by destabilization of mutually exclusive base pairs within competing secondary structure elements”:
# T1: StpA-CTD (Escherichia coli, UniProt P0ACG1 90-134)
# T1 chain: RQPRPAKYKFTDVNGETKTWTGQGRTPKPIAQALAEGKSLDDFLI
# What was measured:
# StpA-CTD [1] = molecular target: T1, StpA-CTD; assay: ITC; 5 C; n=1.74; 50 mM BisTris, 25 mM NaCl, pH 6.4; ITC at 5 and 25 C (40 uM RNA in cell, StpA-CTD 400/800/920 uM injected); NMR with 10% D2O, titration at 25 C; settings: protein: recombinant; tags: none (His6-SUMOstar removed by SUMO protease); chain copies: 2; hairpin (5'-fold)
# StpA-CTD [2] = molecular target: T1, StpA-CTD; assay: ITC; 25 C; n=1.69; 50 mM BisTris, 25 mM NaCl, pH 6.4; ITC at 5 and 25 C (40 uM RNA in cell, StpA-CTD 400/800/920 uM injected); NMR with 10% D2O, titration at 25 C; settings: protein: recombinant; tags: none (His6-SUMOstar removed by SUMO protease); chain copies: 2; hairpin (5'-fold)
# StpA-CTD [3] = molecular target: T1, StpA-CTD; assay: ITC; 25 C; n=1.74; 50 mM BisTris, 25 mM NaCl, pH 6.4; ITC at 5 and 25 C (40 uM RNA in cell, StpA-CTD 400/800/920 uM injected); NMR with 10% D2O, titration at 25 C; settings: protein: recombinant; tags: none (His6-SUMOstar removed by SUMO protease); chain copies: 2; hairpin (3'-fold), 1 nt 5' overhang
# StpA-CTD [4] = molecular target: T1, StpA-CTD; assay: ITC; 5 C; n=1.78; 50 mM BisTris, 25 mM NaCl, pH 6.4; ITC at 5 and 25 C (40 uM RNA in cell, StpA-CTD 400/800/920 uM injected); NMR with 10% D2O, titration at 25 C; settings: protein: recombinant; tags: none (His6-SUMOstar removed by SUMO protease); chain copies: 2; hairpin (3'-fold), 1 nt 5' overhang
# StpA-CTD [5] = molecular target: T1, StpA-CTD; assay: ITC; 25 C; n=1.93; 50 mM BisTris, 25 mM NaCl, pH 6.4; ITC at 5 and 25 C (40 uM RNA in cell, StpA-CTD 400/800/920 uM injected); NMR with 10% D2O, titration at 25 C; settings: protein: recombinant; tags: none (His6-SUMOstar removed by SUMO protease); chain copies: 2
# StpA-CTD [6] = molecular target: T1, StpA-CTD; assay: ITC; 5 C; n=1.84; 50 mM BisTris, 25 mM NaCl, pH 6.4; ITC at 5 and 25 C (40 uM RNA in cell, StpA-CTD 400/800/920 uM injected); NMR with 10% D2O, titration at 25 C; settings: protein: recombinant; tags: none (His6-SUMOstar removed by SUMO protease); chain copies: 2
# StpA-CTD [7] = molecular target: T1, StpA-CTD; assay: ITC; 5 C; n=1.93; 50 mM BisTris, 25 mM NaCl, pH 6.4; ITC at 5 and 25 C (40 uM RNA in cell, StpA-CTD 400/800/920 uM injected); NMR with 10% D2O, titration at 25 C; settings: protein: recombinant; tags: none (His6-SUMOstar removed by SUMO protease); chain copies: 2; hairpin, locked 5'-fold
# StpA-CTD [8] = molecular target: T1, StpA-CTD; assay: ITC; 25 C; n=1.80; 50 mM BisTris, 25 mM NaCl, pH 6.4; ITC at 5 and 25 C (40 uM RNA in cell, StpA-CTD 400/800/920 uM injected); NMR with 10% D2O, titration at 25 C; settings: protein: recombinant; tags: none (His6-SUMOstar removed by SUMO protease); chain copies: 2; hairpin, locked 5'-fold
# StpA-CTD [9] = molecular target: T1, StpA-CTD; assay: ITC; 25 C; n=2.33; 50 mM BisTris, 25 mM NaCl, pH 6.4; ITC at 5 and 25 C (40 uM RNA in cell, StpA-CTD 400/800/920 uM injected); NMR with 10% D2O, titration at 25 C; settings: protein: recombinant; tags: none (His6-SUMOstar removed by SUMO protease); chain copies: 2; hairpin, locked 3'-fold
# StpA-CTD [10] = molecular target: T1, StpA-CTD; assay: ITC; 5 C; n=2.21; 50 mM BisTris, 25 mM NaCl, pH 6.4; ITC at 5 and 25 C (40 uM RNA in cell, StpA-CTD 400/800/920 uM injected); NMR with 10% D2O, titration at 25 C; settings: protein: recombinant; tags: none (His6-SUMOstar removed by SUMO protease); chain copies: 2; hairpin, locked 3'-fold
binder,measurement,setting,value
GACCGGAAGGUCC (structured_RNA) [5'-HP],Kd,StpA-CTD [1],13.3 ± 3.7 µM
same,Kd,StpA-CTD [2],24.7 ± 0.6 µM
CGGAAGGUCCGCCUUCC (structured_RNA) [3'-HP],Kd,StpA-CTD [3],16.1 ± 2.6 µM
same,Kd,StpA-CTD [4],11.3 ± 1.4 µM
GACCGGAAGGUCCGCCUUCC (structured_RNA) [bistable 20mer RNA],Kd,StpA-CTD [5],12.3 ± 1.7 µM
same,Kd,StpA-CTD [6],9.4 ± 1.3 µM
"GACCGGAAGGUCCGCCUUCC (structured_RNA, N1-methylguanosine at G6) [G6-m1G]",Kd,StpA-CTD [7],16.3 ± 0.7 µM
same,Kd,StpA-CTD [8],17.5 ± 1.3 µM
"GACCGGAAGGUCCGCCUUCC (structured_RNA, N6-dimethyladenosine at A2) [A2-DMA]",Kd,StpA-CTD [9],13.6 ± 1.6 µM
same,Kd,StpA-CTD [10],8.31 ± 0.8 µM
